Literature values as cited in patent US20230233498A1, “COMPOSITIONS AND METHODS FOR THE TREATMENT OF COVID-19” (PROTHIONE, LLC, priority 2020, published 2023).

What was measured:
Ebola virus (EBOV) = conditions: cells expressing NZAP-Zeo or full-length ZAP
EBOV replicon system = conditions: transient expression

B1: ZAP: zinc finger antiviral protein (protein, UniProt Q7Z2W4 2-902, looked up)
Zinc finger CCCH-type …: ADPEVCCFITKILCAHGGRMALDALLQEIALSEPQLCEVLQVAGPDRFVVLETGGEAGITRSVVATTRARVCRRKYCQRPCDNLHLCKLNLLGRCNYSQSERNLCKYSHEVLSEENFKVLKNHELSGLNKEELAVLLLQSDPFFMPEICKSYKGEGRQQICNQQPPCSRLHICDHFTRGNCRFPNCLRSHNLMDRKVLAIMREHGLNPDVVQNIQDICNSKHMQKNPPGPRAPSSHRRNMAYRARSKSRDRFFQGSQEFLASASASAERSCTPSPDQISHRASLEDAPVDDLTRKFTYLGSQDRARPPSGSSKATDLGGTSQAGTSQRFLENGSQEDLLHGNPGSTYLASNSTSAPNWKSLTSWTNDQGARRKTVFSPTLPAARSSLGSLQTPEAVTTRKGTGLLSSDYRIINGKSGTQDIQPGPLFNNNADGVATDITSTRSLNYKSTSSGHREISSPRIQDAGPASRDVQATGRIADDADPRVALVNDSLSDVTSTTSSRVDDHDSEEICLDHLCKGCPLNGSCSKVHFHLPYRWQMLIGKTWTDFEHMETIEKGYCNPGIHLCSVGSYTINFRVMSCDSFPIRRLSTPSSVTKPANSVFTTKWIWYWKNESGTWIQYGEEKDKRKNSNVDSSYLESLYQSCPRGVVPFQAGSRNYELSFQGMIQTNIASKTQKDVIRRPTFVPQWYVQQMKRGPDHQPAKTSSVSLTATFRPQEDFCFLSSKKYKLSEIHHLHPEYVRVSEHFKASMKNFKIEKIKKIENSELLDKFTWKKSQMKEEGKLLFYATSRAYVESICSNNFDSFLHETHENKYGKGIYFAKDAIYSHKNCPYDAKNVVMFVAQVLVGKFTEGNITYTSPPPQFDSCVDTRSNPSVFVIFQKDQVYPQYVIEYTEDKACVIS
Ebola virus (EBOV)
  EBOV inhibited: up to 4 log units
EBOV replicon system
  decreased activity of an EBOV replicon system: up to 95%
